The results in this text go back to article PMC7040040 (Scientific Reports, 2020).

Broadly, the koff is the first-order rate constant of dissociation. As usually defined, the kon is the second-order rate constant of association. A low value points to slower complex formation.

Conditions in all cases: both partners purified
One experiment concerns the target T1, Aβ(1–40) monomer (Homo sapiens, UniProt P05067).
T1 construct: amyloid beta peptide, residues 1-40
The experiment in a line: SPR; Biacore 3000; antibody captured on a CM5 chip via immobilised anti-mouse or anti-human antibody; monomeric Aβ peptides injected (240 µl, 30 µl/min), running buffer HBS-EP; 1:1 Langmuir binding model. (In SPR one partner is held on a chip, and binding of the other changes the refractive index at the surface.)

Another experiment has as its target T2, Aβ(3–40) monomer (Homo sapiens, UniProt P05067).
T2 construct: amyloid beta peptide, residues 3-40, N-terminal glutamate not cyclised
The description is as above.

For experiment [1], the target named is T3, oligomers (AADL) of 100% Aβ(1–42) (Homo sapiens, UniProt P05067).
T3 construct: amyloid beta peptide, residues 1-42; also called Mixed Oligomers (AADL) 0: 100; oligomers consisting of 100% Aβ(1–42); source: 2500 µM Aβ(1–42) added to Ham's F-12 medium, 18 hours at 4 °C, supernatant after centrifugation
In words: SPR; Biacore 3000; Aβ oligomers or fibrils captured with pE3-Aβ-specific antibodies (pure pE3-Aβ aggregates) or an N-terminal non-pE3-Aβ-specific antibody (Aβ(1–42) aggregates and mixtures); PBD-C06 antibody injected; Single Cycle Kinetics model; bivalent binding.

For a further experiment, the target named is T4, fibrils of 100% Aβ(1–42) (Homo sapiens, UniProt P05067).
T4 construct: amyloid beta peptide, residues 1-42; also called Mixed Fibrils 0: 100; source: 350 µM Aβ(1–42), diluted to 50 µM, fibrillated 7 days at 37 °C, pH 8.7
Described as above.

B1: murine PBD-C06 precursor antibody (antibody, V domains shown)
VH: EVQLQQSGPELVKPGASMKISCKASGYSFTGYTMNWVKQSHGKNLEWIGLINPYNGVTRYNQKFKGKATLIVDKSSSTAYMELLSLTSEDSAVYYCTREAKREWDETYWGQGTLVTVSA
VL: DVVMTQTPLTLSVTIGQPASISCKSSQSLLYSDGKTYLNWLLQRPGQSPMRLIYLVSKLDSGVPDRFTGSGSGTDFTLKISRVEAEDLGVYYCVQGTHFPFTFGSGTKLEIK
notes: murine hybridoma precursor VH; murine heavy chain constant region; murine hybridoma precursor VL; murine light chain constant region, not described; Whole antibody; also called murine precursor antibody
Consider B1, for which the Kd in the experiment with Aβ(1–40) monomer was determined as 6310 nM; with Aβ(3–40) monomer, 796 nM; in experiment [1] it was 2.02 nM; in the experiment with fibrils of 100% Aβ(1–42) it was 1.81 nM. Further, the koff in the experiment with Aβ(1–40) monomer and with Aβ(3–40) monomer was 0.0025 s⁻¹ throughout. Moreover, the kon with Aβ(1–40) monomer worked out at 390 M⁻¹ s⁻¹; with Aβ(3–40) monomer, 3200 M⁻¹ s⁻¹.
